{"source": "patent US20090104207A1", "about": "(published 2009)", "binders": {"B1": {"name": "5D2 (antibody, V domains shown)", "VH": "QVQLVESGGGVVQPGRSLRLSCVASGFTFSHYAMHWIRQAPGKGLEWVAVVSYDGSNKFYVDSVKGRFTISRDNSKNTVYLQMNSLRAVDTAVYYCARDPGVVTGSWSDSDGPPIHWGQGTLVTVSS", "VL": "DIVVTQSPDSLAVSLGERATITCKSSQSVFYSSNNKNYLGWYQQKPGQPPKLLIYWASTRASGVPDRFSGSGSGTDFTLTISSLQAEDVAVYYCQQYYTSWAFGQGTKVEIKR", "notes": "also called 5D2H9; IGH 534"}}, "key": {"IGP 2137": {"target": "T1, IGP 2137 (hepatitis C virus)", "T1 construct": "also called RMAWDM", "assay": "peptide ELISA (fine-mapping)"}, "IGP 3472": {"target": "IGP 3472 (hepatitis C virus)", "assay": "ELISA: biotinylated peptide on streptavidin-coated plate, serial dilution of 5D2; EC50 from Prism, shown as difference in log EC50 versus IGP 2254"}, "IGP 2241": {"target": "IGP 2241 (hepatitis C virus)", "assay": "ELISA, biotinylated peptide on streptavidin plates (FIG. 9)"}, "IGP 2138": {"target": "T2, IGP 2138 (hepatitis C virus)", "T2 construct": "also called WDMMMNW", "assay": "ELISA, biotinylated peptide on streptavidin plates (FIG. 9)"}, "IGP 2242": {"target": "IGP 2242 (hepatitis C virus)", "assay": "ELISA, biotinylated peptide on streptavidin plates (FIG. 9)"}, "[1]": {"target": "HCV E1 envelope glycoprotein, genotype 4a isolate UKN4a, on retroviral pseudoparticles (hepatitis C virus genotype 4a)", "assay": "cell-based or functional assay"}, "[2]": {"target": "HCV E1 envelope glycoprotein, genotype 1a strain H77, on retroviral pseudoparticles (hepatitis C virus genotype 1a strain H77, UniProt P27958 192-383)", "sequence (P27958 192-383 limits assumed)": "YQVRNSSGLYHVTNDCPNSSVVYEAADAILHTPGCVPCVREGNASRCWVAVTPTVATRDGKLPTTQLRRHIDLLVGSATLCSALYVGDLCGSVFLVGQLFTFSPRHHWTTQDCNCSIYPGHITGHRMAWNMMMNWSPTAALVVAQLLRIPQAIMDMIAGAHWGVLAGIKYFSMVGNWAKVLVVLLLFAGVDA", "assay": "cell-based or functional assay"}, "[3]": {"target": "HCV E1 envelope glycoprotein, genotype 2a isolate JFH1, on retroviral pseudoparticles (hepatitis C virus genotype 2a, UniProt Q99IB8 192-383)", "sequence (Q99IB8 192-383 limits assumed)": "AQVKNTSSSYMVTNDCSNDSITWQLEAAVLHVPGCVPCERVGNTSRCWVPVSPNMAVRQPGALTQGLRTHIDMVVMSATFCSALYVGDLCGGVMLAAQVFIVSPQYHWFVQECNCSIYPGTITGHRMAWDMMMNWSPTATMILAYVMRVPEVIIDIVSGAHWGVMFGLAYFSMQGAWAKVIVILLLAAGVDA", "assay": "cell-based or functional assay"}, "IGP 2254": {"target": "T3, IGP 2254 (hepatitis C virus, SMILES …)", "T3 peptide": "Biotin-GGITGHRMAWDMMMNWS-NH2", "assay": "BIAcore, antibody immobilized, peptide in solution"}}, "note": "*: point of attachment. Biotin = O=C1N[C@H]2[C@H](CS[C@H]2CCCCC(=O)*)N1", "data": [{"binder": "B1", "values": [{"measurement": "binding result", "setting": "IGP 2137", "result": "no binding"}, {"measurement": "binding result", "setting": "IGP 3472", "result": "no binding"}, {"measurement": "binding result", "setting": "IGP 2241", "result": "no binding"}, {"measurement": "binding result", "setting": "IGP 2138", "result": "no binding"}, {"measurement": "binding result", "setting": "IGP 2242", "result": "binds"}, {"measurement": "lowest concentration of antibody exhibiting at least 50% neutralization of HCVpp versus control", "setting": "[1]", "result": "> 25", "unit": "µg/mL"}, {"measurement": "lowest concentration of antibody exhibiting at least 50% neutralization of HCVpp versus control", "setting": "[2]", "result": 25, "unit": "µg/mL"}, {"measurement": "lowest concentration of antibody exhibiting at least 50% neutralization of HCVpp versus control", "setting": "[3]", "result": 6.2, "unit": "µg/mL"}, {"measurement": "Kd", "setting": "IGP 2254", "result": 0.06, "unit": "nM"}, {"measurement": "koff", "setting": "IGP 2254", "result": "9.46e-05", "unit": "s⁻¹"}, {"measurement": "kon", "setting": "IGP 2254", "result": "1.71e+06", "unit": "M⁻¹ s⁻¹"}]}]}
